The subject of this series is IBV H120 whole virus (target protein not identified) (Infectious bronchitis virus, live vaccine strain H120). As to the kind of experiment: direct ELAA.
One may read the Kd as the concentration at which binding is half-saturated. The low end stands for higher affinity, the high end for lower affinity. In the case of “GACTTCCCTCTTTGTGTGTCATTCGGTGTTCTCGCTTTTG [Apt_IBV05]”, the equilibrium dissociation constant (Kd) amounted to 59.4 nM.
As for “CCAGTATCATCCCTATCGTAGTCCTCAACAACCCCCTACA [Apt_IBV04]”, the figure is 99.9 nM.
As for “CACGTCTCTCTATTCGCTCCCTTCGCTAATTGTTCTCTCC [Apt_IBV02]”, the figure is 58.2 nM.
“CCCCAATCACAGTTAATCCTCGTTCCTATATCTCCCACAC [Apt_IBV01]” returned a Kd of 99.2 nM.
As for “CAGACTTTGTTCAGCTCCTCGACTCTTCATTCCCTCCCTT [Apt_IBV03]”, the figure is 109 nM.

The record behind these values is PMC9927260.
